Measurements reported in article PMC6959235, “A mosquito salivary protein promotes flavivirus transmission by activation of autophagy” (Nature Communications, 2020).

Target: recombinant LRPPRC protein purified from 293F cells (human, UniProt P42704 60-1394)
Experiment: ELISA
Conditions: both partners purified

B1: Aedes aegypti venom allergen-1 (AaVA-1), recombinant, from Drosophila S2 cells (natural protein)
chain: NYCDQSLCRRGPHVACNAPTQFGSACGQEPKFVKMDARMKNLLLKKHNELRAEIACGKHGFPQAARMPTLVWDDELAHIASFNARKCIFAHDKCRNTREFKFAGQNLAITAFAGYNFQAADRAENFTQEWFNEHKDCPKSYVDSYPMSHSGPQIGHFTQMVNDRAWKMGCSMVHYKNGRVIKYYLVCNYSMTNMIEEPIYTRGSAGSKCQTGQNPQYRGLCSPREKVRSESYRG
notes: also called AAEL000793; purified AaVA-1
binding result: binds
